What was measured:
cortical neurons = assay: Viability of transfected neurons exposed to activated microglia (GFP+ cell counts); type: cell-based, rat; details: overnight exposure to activated microglia; vector-expressing cells reduced by nearly 40%
Method: (§1) For electrophysiological experiments, mixed cortical neuronal/glial cultures were prepared from embryonic day 16 (E16) Sprague-Dawley rats (Charles River Laboratories, Wilmington, Mass., USA). Donor rats were euthanized by gradual CO2 exposure. Cortices were dissociated with trypsin, and the resultant cell suspension, adjusted to 670,000 cells per well, was plated on glass coverslips in 6-well plates as described previously (Hartnett et al., J Neurochem 68, 1836-1845, 1997). Non-neuronal cell proliferation was inhibited after two weeks in culture with 1-2 μM cytosine arabinoside, and cultures utilized at three to four weeks in vitro. For neuronal transfection, cells were treated for five hours in serum-free medium with 2 μL LIPOFECTAMINE™ 2000 (Invitrogen, Carlsbad, Calif.), 50 μL Optimem (GIBCO, Grand Island, N.Y.), and 1.5 μg DNA per well. For CHO cell transfections, cells were plated on coverslips in 24-well plates at a density of 5.6×10^4 cells per well for electrophysiological measurements or in 100 mm dishes at a density of 1.7×10^6 cells per dish for biochemical studies. […]
Viability of transfected neurons was assessed by cell counts of GFP+ cells. […] GFP+ cells were counted in 20 random areas per coverslip using a 20× objective. […]
It was next evaluated whether C1a441-522 was sufficient to protect neurons against oxidative injury. […]

Kv2.1 K^+ currents = assay: Whole-cell patch clamp K+ currents in cortical neurons after DTDP; type: cell-based, rat
Method: as §1, with “well.” for “well. For CHO cell transfections, cells were plated on coverslips in 24-well plates at a density of 5.6×10^4 cells per well for electrophysiological measurements or in 100 mm dishes at a density of 1.7×10^6 cells per dish for biochemical studies.”
Current recordings were performed on eGFP-positive co-transfected neurons or CHO cells using the whole-cell patch clamp configuration technique as described previously (McLaughlin et al., J Neurosci 21, 3303-3311, 2001). […] To determine current density values, steady-state current amplitudes were measured 180 msec after the initiation of the +10 mV step and normalized to cell capacitance. […]

| Molecule | effect of activated microglia on viability of peptide-expressing neurons (cortical neurons) | effect on DTDP-induced enhancement of K+ current densities (Kv2.1 K^+ currents; cortical neurons transfected with C1a-expressing plasmid, 30 μM DTDP 10 min, +10 mV step) | effect on non-apoptotic, basal delayed-rectifier K+ currents (Kv2.1 K^+ currents; cortical neurons, without DTDP) |
| --- | --- | --- | --- |
| C1a441-522: distal segment of C1a, residues 441-522 of rat Kv2.1 (protein, UniProt P15387 441-522, looked up, fragment) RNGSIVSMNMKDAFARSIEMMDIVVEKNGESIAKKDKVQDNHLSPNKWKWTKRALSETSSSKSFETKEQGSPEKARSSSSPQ | no detrimental effect | – | – |
| C1a: rat Kv2.1 C1a peptide, residues 411-522 of SEQ ID NO: 3, expressed from a plasmid (protein, listed as Rattus norvegicus) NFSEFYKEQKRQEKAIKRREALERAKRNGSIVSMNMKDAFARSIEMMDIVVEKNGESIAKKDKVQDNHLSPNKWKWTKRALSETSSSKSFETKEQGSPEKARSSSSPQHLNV | – | failed to exhibit the enhanced K^+ current densities normally elicited by DTDP | had no effect |
